Laboratory results reported in patent US20230416942A1 (YALE UNIVERSITY, published 2023).

B1: TNFRSF17_Nb2.18 (Fc fusion)
chain: QVQLQESGGGLVQAGGSLRLSCAASGNIFRGWYMGWYRQAPGKEREFVATIASGGSTYYADSVKGRFTISRDNAKNTVYLQMNSLKPEDTAVYYCAVWDWEPGDYAYWGQGTQVTVSS
notes: Nanobody expressed as an Fc fusion protein (fused with human IgG1) in Expi293 cells; not shown: human IgG1 Fc; nanobodies expressed as Fc fusion from vector pCER243
B2: TNFRSF17_Nb2.23 (Fc fusion)
chain: QVQLQESGGGLVQAGGSLRLSCAASGYISRYDYMGWYRQAPGKERELVAAINSGASTYYADSVKGRFTISRDNAKNTVYLQMNSLKPEDTAVYYCAVRSWGLDDYAYWGQGTQVTVSS
notes: as for B1
B3: TNFRSF17_Nb2.19 (Fc fusion)
chain: QVQLQESGGGLVQAGGSLRLSCAASGTISHPTYMGWYRQAPGKEREFVAGISDGTNTYYADSVKGRFTISRDNAKNTVYLQMNSLKPEDTAVYYCAAITSWDYGYGYWGQGTQVTVSS
notes: as for B1
B4: TNFRSF17_Nb2.21 (Fc fusion)
chain: QVQLQESGGGLVQAGGSLRLSCAASGTIFQYDYMGWYRQAPGKEREFVAAIAYGGNTNYADSVKGRFTISRDNAKNTVYLQMNSLKPEDTAVYYCAAWSWRRSRAYWGQGTQVTVSS
notes: as for B1
B5: CD302_Nb33 (Fc fusion)
chain: QVQLQESGGGLVQAGGSLRLSCAASGTISIIFAMGWYRQAPGKEREFVAGIGRGTTTYYADSVKGRFTISRDNAKNTVYLQMNSLKPEDTAVYYCAAHVFYDNVVQRHAYWGQGTQVTVSS
notes: Nanobody expressed and tested as Fc fusion (human IgG1); not shown: human IgG1 Fc (vector pCER243)
B6: CD302_Nb30 (Fc fusion)
chain: QVQLQESGGGLVQAGGSLRLSCAASGSISLATGMGWYRQAPGKEREFVAGISVGTSTYYADSVKGRFTISRDNAKNTVYLQMNSLKPEDTAVYYCAAIAWHPSGARSYLRYWGQGTQVTVSS
notes: as for B5
B7: CD302_Nb35 (Fc fusion)
chain: QVQLQESGGGLVQAGGSLRLSCAASGTISRVFVMGWYRQAPGKERELVAGIGGGTSTYYADSVKGRFTISRDNAKNTVYLQMNSLKPEDTAVYYCAAILSDRVLFRYWGQGTQVTVSS
notes: as for B5
B8: CD302_Nb26 (Fc fusion)
chain: QVQLQESGGGLVQAGGSLRLSCAASGNISFIGAMGWYRQAPGKEREFVAGINVGTNTYYADSVKGRFTISRDNAKNTVYLQMNSLKPEDTAVYYCAAYVFVSRIDLRYLVYWGQGTQVTVSS
notes: as for B5
B9: CD302_Nb28 (Fc fusion)
chain: QVQLQESGGGLVQAGGSLRLSCAASGSISGVSGMGWYRQAPGKEREFVAGITTGTSTYYADSVKGRFTISRDNAKNTVYLQMNSLKPEDTAVYYCAAYANYVPSSRLYLRYWGQGTQVTVSS
notes: as for B5
B10: CD302_Nb32 (Fc fusion)
chain: QVQLQESGGGLVQAGGSLRLSCAASGTIFPDSSMGWYRQAPGKEREFVAGITTGANTYYADSVKGRFTISRDNAKNTVYLQMNSLKPEDTAVYYCAAYHVDRAVFRYWGQGTQVTVSS
notes: as for B5
B11: CD302_Nb31 (Fc fusion)
chain: QVQLQESGGGLVQAGGSLRLSCAASGTIFKSAGMGWYRQAPGKEREFVAGIAPGAITYYADSVKGRFTISRDNAKNTVYLQMNSLKPEDTAVYYCAALVADGRPYRYWGQGTQVTVSS
notes: as for B5
B12: CD3E_Nb2.74 (Fc fusion)
chain: QVQLQESGGGLVQAGGSLRLSCAASGTIFYASVMGWYRQAPGKEREFVAGITPGGSTNYADSVKGRFTISRDNAKNTVYLQMNSLKPEDTAVYYCAVYYRYSEGRIGGHAYWGQGTQVTVSS
notes: as for B5

target: REAP Off-Targets; test: REAP, nanobody-Fc on yeast-displayed human antigen library

Binder | REAP Off-Targets (number) [off-targets]
B1 | 1
B2 | 2
B3 | 3
B4 | 5

target: T1, CD302 (human, UniProt Q8IX05 23-168, limits assumed); test: ELISA, plate-coated recombinant human protein, nanobody-Fc
T1 construct: Recombinant human protein in ELISA
T1 sequence (looked up): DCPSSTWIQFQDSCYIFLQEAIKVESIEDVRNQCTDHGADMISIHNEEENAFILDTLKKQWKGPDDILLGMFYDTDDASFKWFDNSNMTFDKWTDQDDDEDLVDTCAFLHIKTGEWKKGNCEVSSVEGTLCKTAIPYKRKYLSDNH
Experimental: (§1) Recombinant human protein was diluted in PBS to a final concentration of 5 μg/mL and was immobilized on 96-well flat bottom MaxiSorp plates (Thermo Fisher Scientific) and placed at 4° C. overnight. Plates were washed three times with 225 μL ELISA wash buffer (PBS with 0.05% Tween 20) and 200 μL ELISA blocking buffer (PBS with 1% Casein) was added to the well. Plates were incubated with shaking for 2 hours at room temperature. ELISA blocking buffer was removed from the wells and appropriate dilutions of recombinant nanobodies in 100 μL ELISA blocking buffer was added to each well. Plates were incubated with shaking for 2 hours at room temperature. Plates were washed 3 times with 225 μL ELISA wash buffer and 1:5000 goat anti-human IgG HRP (Millipore Sigma) in 100 μL ELISA blocking buffer was added to the wells. Plates were incubated with shaking for 1 hour at room temperature. Plates were washed 6 times with 225 μL ELISA wash buffer. 50 μL TMB substrate (BD Biosciences) was added to the wells and plates were incubated for 15 minutes in the dark at room temperature. 50 μL 1 M sulfuric acid was added to the wells and absorbance at 450 nm was measured in a Synergy HTX Multi-Mode Microplate Reader (BioTek).

Binder | EC50 [nM]
B5 | 2.26
B6 | 2.21
B7 | 0.654
B8 | 8.5
B9 | 0.684
B10 | 0.49
B11 | 1.26

target: T2, CD3E (human, UniProt P07766 23-126); test: as above
T2 construct: Recombinant human protein in ELISA
Experimental: as §1

T2 sequence (P07766 23-126 limits assumed): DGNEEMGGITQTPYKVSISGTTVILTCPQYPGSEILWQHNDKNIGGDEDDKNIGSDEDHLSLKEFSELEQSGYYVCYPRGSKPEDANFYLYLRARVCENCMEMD

Binder | EC50 [nM]
B12 | 1.2

target: T3, TNFRSF17 (recombinant human protein) (human, UniProt Q02223 1-54); test: ELISA, recombinant human protein coated, nanobody-Fc titrated, anti-human IgG HRP
T3 construct: Recombinant human protein immobilized at 5 ug/mL for ELISA
T3 sequence (looked up): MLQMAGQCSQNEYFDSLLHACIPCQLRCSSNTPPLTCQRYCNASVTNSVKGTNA
Experimental: as §1

Binder | EC50 [nM]
B1 | 2.82
B2 | 7.57
B3 | 2.84
B4 | 4.75
